According to the DeepSol protein solubility set:

Assay: soluble on expression in E. coli; label from the status in PepcDB or PDB records
With “MGSDKIHHHHHHMEDYEGKFSPSELKLKGIHTSTTFWTVGMIVQQYKNGHLVIPKIQRGYVWNEEKARRFIMSLLQGFPIPPIFIIELSGKFYVVDGQQRIRTILWFLGEDNELLEKLGPLRVPIKELAENYNEYGVTNLSEAIIKKIIFGNHPKEFNYKYFTKDFRQYFESLSIPVQHISISSGKEYILTDIFLRINQGSVKLSAMELWRVYYGKDIEEYFHKLNELARYTVAKIYEVSNGKISRQKLERFRIDEFILTFDVLINGLITPPNYIPKDAKLGAVIFSQKTTLKKVKIFVLENRRKVFKNNKGELKKFLDYLEREYKEILKMITYVLGEFTFRRPTIGNECQYALIRPSGNDINEAVFLYEVAIFKLLKDNGHSELIYENKDFIKHVILTSLIENDELFSRSTSTFRSVANKLELAKLTYKKIITKEDNITKDNLKRLLYEKFRASRVSNPVCPYCKEPISDISVADLAHIRPLAFGGQTYIHNLTLAHSTCNRRFGVRDISQYINRC” the “soluble on expression in E. coli” value was “not soluble”. In the case of “MREAVIVAGARTPIGKAKRGSLKTVRPDDLGALVVKETLKRANYEGPIDDLIFGCAMPEAEQGLNMARNIGGLAGLSYDVPAITINRYCSSGLQSIAYGAERIMLGHSEAVLSGGAESMSLVPMMGHVVRPNSRLVEAAPEYYMGMGHTAEQVAVKYGISREEQDAFAVRSHQRAAKALAAGNFADETVSVDVTLRTVGANNKLQEETITFAQDEGVRAETTLDILGKLRPAFNVRGSVTAGNSSQMSDGAASVLLMDREKAVSDGMKPLAKFRSFAVAGVPPEVMGIGPIAAIPKALKLAGLELSDIGLFELNEAFASQSIQVIRELGLDEEKVNVNGGAIALGHPLGCTGAKLTLSLIHEMKRRNEQFGIVTMCIGGGMGAAGVFELL”, the “soluble on expression in E. coli” value is reported as “not soluble”. For “SPDHLFPPKPNTRVVVAKFPMGAVTVEDLLVLGKPFGTVVKHLVLPAKGFLEFSAHKEAVNMVNHFQQKPAFVKDTRVGLYLSPRVEGIHSPPKYDEPVPKRLKRTNNPSVVCFSHLPPGEDNQAEVLELAAMFGEVWQSKFLDGKALIEMVDWRDADIMVKYYYSNPLKIQGKSIKVTMSYIKSLREMPGELTPRKSDSSKHSRQKEESSVKDKADDTNQESSEKETKTIKTPEQSQEEGVQLEEGTDHYNNLKLKHAVEEQADGQPDGE”, the “soluble on expression in E. coli” value was “soluble”. For “GPGSMKPLRIKKRESAGTPAEDEALTGLTSSASSVAAGSLAPRHVPSPPAVKGGRLPAHPGHDSGPSPAAATPAPTAKVSAAVKFSSELDNAAVEAYLEYLTHPHMSWESASRHVAHCREVIEEHRNSIYARSLAMLRRSSFASTIGSEGGDLDALETSTTSSVASAPAGFPRTAPNGSNKATGTLRKGRLGDAGSPLLPSDAAEPLAIVAHSSAAVSSSHSADSASCTSTGTGQRAPSNKGRLLRGPALAGPPRPHRTSSSATAPAAVGESVLGVGGAKLLGGSGSVFLVNGRSSAVTSRTASRDSTDRLPPVAPQGGGESLIHCKRTGGARAAVPSPQPKHRLK”, the “soluble on expression in E. coli” value was “soluble”. In the case of “MSLKQKSSGKSVIITGVTQGLGRAMVDRFHELGWNIYGCGRSKDKIEELKKYYGNTHVFQIIDVSDSQQVSDWANYILHRNRAPDLLINNASIVNKNAPLWKVTAEEFENVMNVNVNGVVNVIRAFVPAMVARKAGMIINMSSSWGREGEAELAPYCASKFAIEGITKSLALELPYSMAVVALDPGGSISTPMLYSCAPQYVNESPTPEMWSQHAIPYILKITIDKNGASLTCPECTEGHHHHHH”, the “soluble on expression in E. coli” value is reported as “soluble”. For “MAHHHHHHMKYLTFNRSNKDAIDLCERLEATKIDLANPLLLQYSWVIWEQVSDNKIKQSNNYKDYTRPLAKFNSVQKFWQLWNRLPQPSDLLAQKSMTRLSEDGTLRIIDALMIFRDNIQPMWEDPANAEGGHFEYKFVPRDFPYSQIDEFWNNLVLAIIGCTLKHYNLITGIRLVDKLSTTRHGYVRIEIWYTTVPDESVRNHLRKDLEEHMCNRIDGSHVYPPRGKNFSHSHK”, the “soluble on expression in E. coli” value was “soluble”. For “MAAVDSFQLLYREIARSCSGYVETLALVGACYMASKTVIFMRDCYSLIRLYFVPRLVRHRDLSQQYGQWAIICGASEAIAKAYAEELARHGICVILISKDLSSVSDTARLISNNYGVEAICIEADFNQGPSACKPIKDAISSKDIGFIVNSFDGTLEISQNFLELSESVLWGTIDRNIAATTLVTRLALPAMMERGRGAVVNISSGHCFHPIPRKAAFSASTAFLDNFSRSLQYEYGDQGVFVQSLLPFRVASQRPEGSAPPASWLVPSPQVYASHALSTLGISHRTTGYWPHSMQLGLVKMMPEWVWMLGSRVFTMAT”, the “soluble on expression in E. coli” value was “soluble”. In the case of “MPLIFAPFAADLARRAAALMPIDVLEIAAGTGAVTREMIPRLLPAAHYVVTDLNQPMLDFAAAQQAPDNRIKWRQADAQLLPFENAVFDLVFCQFGAMFFNDRLSAYREAKRVLKPGGHYLFNVWDRIEENHFADDVTNALAGLFPDDPPRFMARTPHGYHDTVLIRRELENAGFSRVTVETVAAQSRAPSPRIPAVAYCQGTVLRTEIEARAPGKLNAATDCAAAAIEARHGKGEVAAKIKAHVILAAV”, the “soluble on expression in E. coli” value is reported as “not soluble”. With “MDSKQQCVKLNDGHFMPVLGFGTYAPPEVPRSKALEVTKLAIEAGFRHIDSAHLYNNEEQVGLAIRSKIADGSVKREDIFYTSKLWSTFHRPELVRPALENSLKKAQLDYVDLYLIHSPMSLKPGEELSPTDENGKVIFDIVDLCTTWEAMEKCKDAGLAKSIGVSNFNRRQLEMILNKPGLKYKPVCNQVECHPYFNRSKLLDFCKSKDIVLVAYSALGSQRDKRWVDPNSPVLLEDPVLCALAKKHKRTPALIALRYQLQRGVVVLAKSYNEQRIRQNVQVFEFQLTAEDMKAIDGLDRNLHYFNSDSFASHPNYPYSDEYLEHHHHHH” the “soluble on expression in E. coli” value was “soluble”. With “MFMGKLPHQADLIGALIEAAGANGIRAGAIQVIGALQGAKLGFYDQWSKSYRELPFAKPLEIVSGLGNISLRDGRPFVHLHLSISDEEGKVFGGHALEGCTIFAAEYAIMPLPGSAPVRVFDETTGLFLWEREQYPASGQKGLSPELERALLNPLEHHHHHH” the “soluble on expression in E. coli” value was “soluble”. For “MGSRNIVRAVLEEKKTEAITEVDEKGITCVMKFGGSSVASAERMKEVADLILTFPEESPVIVLSAMGKTTNNLLLAGEKAVSCGVSNASEIEELSIIKELHIRTVKELNIDPSVILTYLEELEQLLKGIAMMKELTLRTRDYLVSFGECLSTRIFAAYLNTIGVKARQYDAFEIGFITTDDFTNGDILEATYPAVAKRLYDDWMHDPAVPIVTGFLGKGWKTGAVTTLGRGGSDLTATTIGKALGLKEIQVWKDVDGVLTCDPTIYKRATPVPYLTFDEAAELAYFGAQVLHPQSMRPAREGEIPVRVKNSYNPKAPGTIITKTRDMTKSILTSIVLKRNVTMLDIASTRMLGQVGFLAKVFSIFEELGISVDVVATSEVSISLTLDPSKLWSRELIQQELDHVVEELEKIAVVNLLKGRAIISLIGNVQHSSLILERAFHVLYTKGVNVQMISQGASKVNISFIVNEAEAEGCVQALHKSFFESGDLSELLIQPRLGNGSPVRTLQVEN”, the “soluble on expression in E. coli” value was “soluble”. For “MFKPELLSPAGTLKNMRYAFAYGADAVYAGQPRYSLRVRNNEFNHENLQLGINEAHALGKKFYVVVNIAPHNAKLKTFIRDLKPVVEMGPDALIMSDPGLIMLVREHFPEMPIHLSVQANAVNWATVKFWQQMGLTRVILSRELSLEEIEEIRNQVPDMEIEIFVHGALCMAYSGRCLLSGYINKRDPNQGTCTNACRWEYNVQEGKEDDVGNIVHKYEPIPVQNVEPTLGIGAPTDKVFMIEEAQRPGEYMTAFEDEHGTYIMNSKDLRAIAHVERLTKMGVHSLKIEGRTKSFYYCARTAQVYRKAIDDAAAGKPFDTSLLETLEGLAHRGYTEGFLRRHTHDDYQNYEYGYSVSDRQQFVGEFTGERKGDLAAVAVKNKFSVGDSLELMTPQGNINFTLEHMENAKGEAMPVAPGDGYTVWLPVPQDLELNYALLMRNFSGETTRNPHGK”, the “soluble on expression in E. coli” value was “not soluble”. With “GLEVTVWNRSAAACEPLVALGAARAEEVGELFGLDVVISMLADDQAIRGVLLDSGALERARPGLIHLSMSTLSLDCVEALDQAHQRQGLAFVAAPVFGRTDVAEAGKLNIVVGGPEEAIEQVKALLEIMGQKTWFFGKDPRGAMAVKISGNFMIASAIESMGESVALVKRLGVEPGRFMELMSSTLFDAPVYRNYGPQIVEQRFTPARFRLVLGLKDVDLALSAGKRHNVPLPLASLLHDVLLEAIAHGDGESDWTALAKVALSRSGQI” the “soluble on expression in E. coli” value was “not soluble”.
